Results on one molecule are retold here after US20170073416A1 (SPRING BIOSCIENCE, published 2017).

The target in experiment [1] is T1, peptide immunogen (human B7-H3 aa 521-534), KHSDSKEDDGQEIA (human, not fully specified).
T1 construct: also called immobilized peptide immunogen
T1 peptide: KHSDSKEDDGQEIA
In words: ELISA, antibody on immobilized peptide immunogen. As to the method: ELISA studies were performed with the SP265 antibody to evaluate binding to the immobilized peptide immunogen (human B7-H3 aa 521-534).

The next experiment addresses T2, human B7-H3 (human, UniProt Q5ZPR3 29-534).
T2 construct: whole, on cells; Endogenous protein detected in FFPE cells and tissues by IHC, and as a 110 kDa band in SDS-PAGE-fractionated cell lysates by Western blot; also called B7-H3 polypeptide
T2 sequence (looked up): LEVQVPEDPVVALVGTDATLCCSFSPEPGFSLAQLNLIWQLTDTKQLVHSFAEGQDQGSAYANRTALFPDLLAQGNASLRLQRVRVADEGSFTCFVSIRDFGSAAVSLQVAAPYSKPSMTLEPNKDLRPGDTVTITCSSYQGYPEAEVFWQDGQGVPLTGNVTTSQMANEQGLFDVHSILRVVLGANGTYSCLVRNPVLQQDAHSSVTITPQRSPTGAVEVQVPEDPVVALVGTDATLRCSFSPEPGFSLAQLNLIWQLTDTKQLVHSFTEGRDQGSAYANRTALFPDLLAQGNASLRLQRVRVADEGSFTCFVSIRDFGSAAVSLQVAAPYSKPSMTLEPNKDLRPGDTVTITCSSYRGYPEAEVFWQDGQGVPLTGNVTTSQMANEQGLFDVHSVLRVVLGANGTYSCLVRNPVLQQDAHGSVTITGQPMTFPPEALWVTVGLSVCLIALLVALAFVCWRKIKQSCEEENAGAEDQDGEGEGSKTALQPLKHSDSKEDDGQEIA
In words: IHC on FFPE samples. As to the method:
Rabbit anti-human B7-H3 monoclonal antibodies SP265 and S10H50L58 were applied onto formalin-fixed paraffin embedded (FFPE) tissue samples to assess the staining patterns of these antibodies. Tissue samples include Hs700t (positive control), kidney (negative control) and renal cell carcinoma (positive control). IHC was performed on BenchMark Ultra (Ventana Medical Systems) using mild CC1 cell conditioning with OptiView detection kit.

No end group written: not given here.

B1: Rabbit anti-human B7-H3 monoclonal antibody SP265 (antibody, V domains shown)
VH: QSVEESRGGLIKPTDTLTLTCTVSGFSLGSYGVSWVRQAPGNGLEWIGGSGKRGNPYYASWAKSRSTITRNTNLNTVTLKMTSLTAADTATYFCASRAPVVSTSMTFNIWGPGTLVTVSS
VL: AQVPTQTPSPVSAAVGGTVTINCQASQSVYNNKNLSWYQQKPGQPPKLLIYEASTLASGVPSRFSGSGSGTQFALTISGVQCEDAATYYCQGEFTCSGADCGAFGGGTEVVVK
notes: also called SP265 anti-B7-H3 antibody; SP265 B7-H3 antibody
In turn, B1 gave an EC50 in experiment [1] of 0.067 nM. Also, in the experiment with human B7-H3, the binding result is given as “binds”.

What is called EC50 is the concentration that produces a half-maximal response. Read a low EC50 as an effect from little substance.
